Experimental data taken from PMC9209446, “Structural basis of template strand deoxyuridine promoter recognition by a viral RNA polymerase”.

Target: AR9 nvRNAP promoter-specificity subunit gp226 (sigma-like);AR9 nvRNAP betaN subunit gp105;AR9 nvRNAP betaC … (Bacillus phage AR9 (Bacillus subtilis …, UniProt A0A172JIC8;A0A172JI16;A0A172JHZ2;A0A172JIH0;A0A172JI62 …, ||||))
Experiment: X-ray crystallography; crystals from 150 mM MIB pH 5, 150 mM LiCl, 13% PEG 1500; 4 mM MgCl2 in DNA annealing buffer; Complex for structures: 34 uM holoenzyme + 50 uM DNA, 30 min at room temperature; DNA annealed in 20 mM Bis-tris propane pH 6.8, 100 mM NaCl, 4 mM MgCl2, 0.5 mM EDTA; crystallized at 19 C
Settings: protein: recombinant;recombinant;recombinant;recombinant;recombinant; tags: ;;;;; copies: 1;1;1;1;1; 14 bp duplex with 18 nt 3' overhang on strand 1

B1: P077 promoter forked oligonucleotide, template [-16;+16] all U / non-template [+3;+16] (dsDNA)
DNA 1: CTCCAATATGTGATATAATATAUUGUUUATTG
DNA 2: ATCACATATTGGAG
modifications: deoxyuridine at the printed U positions of strand 1; both strands DNA
B1: binds.
